Measurements as given in the nanobody polyreactivity screen of Harvey et al. (2022).

Assay: yeast display, Sf9 membrane polyspecificity reagent, FACS + sequencing; frameworks hold sequencing errors
In short: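 After 36–48 hours of galactose induction, yeast (Saccharomyces cerevisiae BJ5465) displaying a synthetic nanobody library were stained at 4 °C for 1 hour with 10% biotinylated, detergent-solubilized Sf9 membrane reagent. Streptavidin microbeads enriched the stained cells before FACS sorting into low and high (top ~1%) gates on anti-HA and streptavidin fluorescence. Each clone's polyreactivity label reflects its gate of origin.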

| Sequence | polyreactivity (PSR sort gate) |
| --- | --- |
| QVQLVESGGGLVQAGGSLRLSCAASGFTFRVYAMGRYRQAPGKERELVAVISGTGGRTYYADSVKGRFTISRDNAKNTVYLQMNSLKPEDTAVYYCARRGRPPAIYDYWGQGTQVTVSS | high polyreactivity |
| QVQLVESGGGLVQAGGSLRLSCAASGRTFYTYAMGWYRQAPGNERELVATISSGGGRTYYADSVKGRFTISPDNAKKTVYLQRNSLNPEDTAVYYCAADKWENRYHAVSDTRPRDYWGQGTQVTVSS | low polyreactivity |
| QVQLVESGGGLVQAGGSLRLSCAASGRIFVPNAMGWYRQAPGKERELVARISRSDGSTYYADSVKGRFTISRDNAKNTVYLQMNSLKPEDTAVYYCAASTTPRWWSFKYYYWGQGTEVTVSS | high polyreactivity |
| QVQLVESGGGLVQAGGSLRLSCAASGRTFRYYAMGWYRQAPGKVRELVAAINWSGGSTYYADSVKGRFTISRDNAKNTVYLQMNSLKPEDTAVYYCAAVGHPSPPRTDLYYWGQGTQVTVSS | low polyreactivity |
| QVQLVESGGGLVQAGGSLRLSCAASGSTFYPYAMGWYSQAPGKERELVAAISSGGSTSYADSVKGRFTISRDNAKNTVYLQMNSLKPEDTAVYYCNASSPGAVPVYDYDYWGQGTQVTVSS | low polyreactivity |
| QVQLVESGGGLVQAGGSLRLSCAASGSIFTYYAMGWYRQAPGKEMELVAAISWSGGSTYYADSVKGRFTISRDNAKNTVYLQLNSLKPEDTAVYYCAKRYRKGRAYPGYEYWGQGTQVTVSS | low polyreactivity |
| QVQVVKSGGGLVQAGGSLSLSCAASGRTFGVYAMGWYRQAPGNESELVAGIRWRGGSTYYADSVKGRFTISRDNSKNTVYLQMKSLKPEETAVYYCAADVDLVKDDYWGQGTQVTVSS | low polyreactivity |
| QVQLVESGGGLVQAGGSLRVSCAASGIIFRYNAMGWSRQAPGKESELVAAITSGGITKYADSVKGRFTISRDNAKNTVYLQMNSLKPEDTAVYYCNAEYGFDRAGSRGEYWGQCTQVTVSS | low polyreactivity |
| QVQLVESVGGLVQAGGSHRLSCAASGRTFQSNGMGWYRHAPGKERELDAAITWSSGTTYYADSVKGRFTISRDNAKNTVYLQMNSLKPEDTAVYYCAADCGHRNCLYYSGFGYWGQGTQVTVSS | low polyreactivity |
| QVQLVESGGGLVQAGGSLRLSCAASGFIFQPYAMGWYRQAPGKERELVAAITSRGGRTYYADSVQGRFTICRDNAKNTVYLQMNSLKPEDTSVYYCNADIYASEYYYWGQGTQVTVSS | low polyreactivity |
| QVQLVDSGGGLVQAGGSLRLSCPASGSTIAWYDMGWYRQEPGKEREFVAAIDYGGGSTYADSVKGRFTISRDNAKNTVYLQMNSLKPDDTAVYYCNADYWVYLYDYWGQGTLVTVSS | low polyreactivity |
| QVQLVESVGGLVQAGGSLRLSCAASGFTFYTYAMGWYRQAPGKERELVAAINQRGGRTYYADSVKGRFTISRDNAKNTVYLQMNSLKPEDTAVYYCAKSPPPKTRYDYWGQGTQVTVSS | high polyreactivity |
| QVQLVESGGGLVQAGGSLRLSCAASGSTSPFNAMGWYRQAPGKERELVASITSSGSTNYADSVKGLFTISRDNAKYTVYFQMNSLKPEDTAVYYCATEGVVSETIYDYWGQGSQVTVSS | low polyreactivity |
| QVQLVESGGGLVQAGGSLRLSCAASGRIFGGYAMGWYRQAPGKERELVAVISGRGGSTYYADSVKGRFTISRDNAMNTVYLQMNSLKPEDTAVYYCTVYRRIQRYGPQSYDYWGQGTQVTVSS | high polyreactivity |
| QVQLVESGGGLVQAGGSLRLSCAASGRTFNFYTMGWYRQAPGKEREFVAGITSTGGSTDYADSVKGRFTISRDNAKNSVYLQMNSLKPEDTAVYYCNKVTSFVGEYDYWGQGTQVTVSS | high polyreactivity |
| QVQHVESGGGLLQAGGSLRLSCAASGGTFTPNVMGWYRQAPGKVRELVAAIDDSGSRTYYADSVKGRFTISRDYAKNTVYLQMNSLKPEDTAVYFCAVFWYGTYPMYYWGQGTQVTVSS | low polyreactivity |
| QVQLVESGGGLVQAGGSLRLSCAASGIIFESYAMGWYRPAPGKERELVAAISWDGGSTYYADSVKGRFTISRDNAKNTVYLQMNSQKPEDTAVYYCAAESYGIYDGYDYWGQGTQVTVSS | high polyreactivity |
| QVQLVESGGGLVQAGGSLRLSCAASGRIFLSYAMGWYRQAPGKEREFVAAITSSGGSTSYADSVKGRFTISRDNAKNTVYLQMNSLKPEDTAVYYCNARAYIFGQLKYDYWGQGTQVTVAS | low polyreactivity |
| QVQLVESGGGLVQAGGSLRLSCAASGRILYLNAMGWYRQAPGKERELVAAITRRAGSTRYADSVKGRFTISRDNAKNTVYLQMNSLKPEDTAVYYCAVAYYRNRMDYWGQGTQVTVSS | high polyreactivity |
| QVQLVESGGGLVQAGGSLRLSCAASGSIFGTNAMGWYRQAPGKERELVAAIDGGSTTYYADSVKGRFTISRDNAKNTVYLQMNSLKPEDTAVYYCAADGTRYLNYEGYAGYEYWGQGTQGTVSS | low polyreactivity |
| QVQIVESGGGLVQAGGSLRLSCAAYGFTFYPYAMGWYRQAPGKERELVAAITRGGSTYYADSVKGRFTISRDNEKNTVYLQMNSLKPEDTAVYYCNAYWQGYGYDYWGQGTQVTVSS | low polyreactivity |
| QVQLVESGGGLVQAGGSLRLICAASGFTFRVYSMGWYRQAPGKEREFVASISWTGDTTYYADSVKGRFTISRDNAKNTVYLQMNSLKPEDTEVYYCAVDTILGYDYWGQVTQVTVSS | low polyreactivity |

| Sequence | polyreactivity (PSR sort gate) |
| --- | --- |
| QVQLVESGGGLFQAGGSLRLSCAASGRTFVKYDMGWYRHAPGKERELVAAISRRGGSTYYADSVKGRFTISRDNAKNTVYLQMNSLKPEDTAVYYCNAVHPKDVDSYRDRDYWGQGTQVTVSS | high polyreactivity |
| QVQLVESGGGLVQAGGSLRLSCAASGSIFARYTMGWYRQAPGKERELVAAISTSGSRTYYADSVKGRFTISRDNAKNCVYLLMNSLKPEDTAVYYCNVAWIWGKYDYWGPGTQVTVSS | high polyreactivity |
| QVQLVESGGGLVQAGGSLRLSCAASGRIFSYYAMRWFRQAPGKERELVAAISSGGSTNYADSVKGRFTISRDNAKNTVYLQMNSLKPEDTAVYYCNAVRGWTTRYDYWGQGTQVTVSS | high polyreactivity |
| QVQLVESGGGLVQAGCSLRLSCAASGGTFYANAKGRYRQAPGIVRELVAAITSGGSTNYADSVKGRFTISRDNAKNTVYLEINSLKPEDTAVYYCNASAQRRYWHSYFRRYDYWGQGTQVTVSS | low polyreactivity |
| QVQLVESGAGLVQAGGSLRLSCAASGIISYRNGMGWYRQAPGKERELVASISKRADSTYYADSVKGGFTLSRDNAKNTVYLQMNSLKPEDTAVYYCAANFRDWHRYYPAGYLRRGYWGQGTQVTVSS | high polyreactivity |
| QVQLVESGGGLVQAGGSLRLTCAASGSTFAGNAMGWYRQATGKERELVAAIDSSTGSTYYADSVKGRFTISRDNAKNTVYLQMNSLKPEDSAVYYCNKTSFLVKLDYWGQGTQVTVSS | low polyreactivity |
| QVQLVESGGGLVQAGGSLRLSCAACGRIFTYNAMGWYRQAPGKERELVAAISSSGGRTYYADSVKGRFTISRDNAKNTLYLEMNSLKPEDTAVYYCARAYREGGRTQRGDYWGQGTQVTVSS | high polyreactivity |
| QVQLVESGGGLVQAGGSLRLSCAASGRIFNVYAMGWYRQAPGKERELVAAIRRRGDRTYYADSVKGRFTISRDNAKNTVYLQMNSLKPEDTAVYYCAKSQSAKGGYDYWGQGTQVTVSS | high polyreactivity |
| QVQLVESCGGLVQAGGSLRLSCAASGSIFRYNAMGWYRQAPWKEWELVAAIRSGSGTNYADSVKGRFTISRDNAKNTVFLQMNSLKPEDTAVYYCNAQPWYRTKYDYWGQGNQVTVSS | low polyreactivity |
| QVQLEESGGGLVQAGGSLRLSCAASGSIFTNAMGWYRQAPGKERELVAAISSSGGSTYYADSVKGRFTISRDNAKNTVYLQMNSLKPEDTAVYYCAADHYGGRDYWGQGTQVTVSS | low polyreactivity |
| QVQLVESGGGLVQAGGSLRISCAASGRTFDPYAMGWYRQAPGKERELVAAITSGGSTYYADTVKGRFTISRDNAKNTVYLQMNSLTPEDTAVYYCAKPYYRLEDYWGQGTQVTVSS | low polyreactivity |
| QVQLVESGGGLVQAGGSLRLSCAASGRIFGEYALGWYRQDPGKERELVARISRSGGSTYADSVKGRFTISRDNAKNTVYFQMNSLKPEVTAVYYCNADAYGTPEFTSYAVRYDYWGQGTQVTVSS | low polyreactivity |
| QVHLVESGGGLVQAGGSLRLSCAASGFTFDYNAMGWYRQAPGKEMELVAAISGSGGSTYYADSVKGRFTISRDNAKNTVYLQMNSLKPEDSSVYYCNAGRVTRRDTFDYWGQGTQVTVSS | high polyreactivity |
| QVQLVETGRGLVQAGGSLRLICAASGRTFGYYAMGWYRQAPGKEREFVAAISHSAGSTSYADSVKGRFTISRDNAKNTVYLQMNSLKPEDTAVFYFAAEICYLSVPRYDYWGQGTQVTVSS | low polyreactivity |
| QVQLVESGGGLVQAGGSLRLSSAASGRIFEGYAMGWYRQAPGKERELVAAISSGGSTYYADSVKGRFTISRDNAKNTVYLQMNSLKPEDTAVYYCNAAHSVVSHGPGAGLEMDYWGQGTQVTVSS | low polyreactivity |
| QVQLVETGGGLVQAGGSLRLSCAATEFIFRNYDMGWYRQAPGKERELVASISRGTSTNYADSVKGRFTISRDNAKNTVYLQKNSLKPEDTAVYYCNKRFYYHPFDYWGQGSQVTVSS | high polyreactivity |
| QVQLVESGGGLVKAGGSLRLSCAASGSIFKGNVMGWYRQAPGKERELVAGINWSSGRTYYADSVKGRFTISRDNAKNTVYLQMNSLNPEDTAVYYCNAPQYFSYSWPYPREYDYWGQGTQVNVSS | high polyreactivity |
| QVQLVESGGGLVQAGGSLRLSCAASGFIFGYNVKGWYRQAPGKERELVAAISSRGSSTYYADSVKGRFSISRDNAKNTVYIQMNSLKPEDTAVYYCAAYSSYNSWVSRRYGHDYWGQGTQVTVSS | high polyreactivity |
| HVQLVESGGGLVQAGGSLRLSCAASGFTFARYAMGWYRQAPGKERDLVATITRSGDSTNYADSVKGRFTISRDNAKNTVYLQMNSLKPEDTAVYYCNRRYPIWYRTMNYWGQGTQVTVSS | high polyreactivity |
| QVQRVESGGGLVQAGGSLRLSCAGSGSTFAQNGMGWYRPAPGKERELVAAIRWNGGSTYYADSVKGRFTISRDNAKNTVYLQMNSLKPEDTAVYYCAARHPLYRVQHEDWGQGTQVTVSS | low polyreactivity |
| QVQLVESGGGLVQAGGSLRLSCAASGFTFAYYAMGWYRQAPGTERELVAAITYSGGSTYYADSVKGRFTISRDNAKNTVYLQMNSLKPEDTAVYYCNAYDRRYYYGRWYGEFDYWGQGTQVTVSS | low polyreactivity |
